Laboratory results as given in patent publication US20100048468A1 (Amgen, published 2010).
Changes are numbered by the printed parent chain. Non-standard residues stand in square brackets, D forms with d. Primed or numbered codes have the meaning given here. No end group written: not given here. Aib′ = alpha aminobutyric acid (source's wording)

T1: mouse GLP-1 receptor (mouse, UniProt O35659 22-463)
T1 sequence (looked up): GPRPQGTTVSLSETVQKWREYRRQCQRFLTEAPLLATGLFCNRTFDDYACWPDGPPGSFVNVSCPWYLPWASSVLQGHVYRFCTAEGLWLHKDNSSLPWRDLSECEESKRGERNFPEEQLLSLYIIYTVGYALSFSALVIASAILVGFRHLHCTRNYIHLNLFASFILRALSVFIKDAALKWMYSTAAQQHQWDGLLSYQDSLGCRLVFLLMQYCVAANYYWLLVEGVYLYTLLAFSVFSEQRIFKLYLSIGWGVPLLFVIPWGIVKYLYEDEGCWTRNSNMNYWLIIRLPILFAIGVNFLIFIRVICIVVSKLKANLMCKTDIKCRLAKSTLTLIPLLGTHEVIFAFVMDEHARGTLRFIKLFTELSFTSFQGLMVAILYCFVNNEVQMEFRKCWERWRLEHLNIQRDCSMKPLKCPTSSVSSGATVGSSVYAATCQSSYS

B1: cgGLP-13 (SEQ ID NO: 8 + 20k PEG monomer) (peptide)
peptide: HGEGTFTSDVSSYLEGC(PEG 20 kDa)AAKEFIAWLKNGGPSSGAPPPS
B2: HGEGT FTSDV SSYLE [Aib]QAAK EFIAW LVKGR G-AMIDE (SEQ ID NO: 15) (peptide)
peptide: HGEGTFTSDVSSYLE[Aib′]QAAKEFIAWLVKGRG-NH2
B3: mgGLP32 & mgGLP-20 (SEQ ID NO: 18 + 20k PEG) (peptide)
peptide: HGEGTFTSDVSSYLE[Aib′]QAAKEFIAWLVKGRGC(mPEG‑maleimide 20 kDa)A-NH2
notes: also called cgGLP30
B4: mgGLP-16 (SEQ ID NO: 20 + 20k PEG) (peptide)
peptide: HGEGTFTSDVSSYLE[Aib′]QAAKEFIAWLVKGRGC(mPEG‑maleimide 20 kDa)G-NH2
B5: cpGLP-25 (SEQ ID NO: 22 + 5k PEG) (peptide)
peptide: HGEGTFTSDVSSYLE[Aib′]QAAKEFIAWLVKGRGC(mPEG‑maleimide 5 kDa)SG-NH2
notes: also called cgGLP-25
B6: cgGLP-24 cgGLP-27, mgGLP-22, mgGLP-33 & mgGLP-27 (SEQ ID NO: 22 + 20k PEG) (peptide)
peptide: HGEGTFTSDVSSYLE[Aib′]QAAKEFIAWLVKGRGC(mPEG‑maleimide 20 kDa)SG-NH2
B7: mgGLP19 & cgGLP- (SEQ ID NO: 21 + 20k PEG) (peptide)
peptide: HGEGTFTSDVSSYLE[Aib′]QAAKEFIAWLVKGRGC(mPEG‑maleimide 20 kDa)SG
notes: also called cgGLP-19
B8: cgGLP-26 (SEQ ID NO: 22 + 10k PEG) (peptide)
peptide: HGEGTFTSDVSSYLE[Aib′]QAAKEFIAWLVKGRGC(mPEG‑maleimide 10 kDa)SG-NH2
B9: A-GLP-1 (SEQ ID NO: 247) (peptide)
peptide: AHAEGTFTSDVSSYLEGQAAKEFIAWLVKGR
notes: Not pegylated
B10: V-GLP-1 (SEQ ID NO: 252) (peptide)
peptide: B9 peptide with A1V
modifications: ends and bridges not checked
notes: Not pegylated
B11: M-GLP1 (SEQ ID NO: 256) (peptide)
peptide: B9 peptide with A1M
notes: Not pegylated
B12: P-GLP-1 (SEQ ID NO: 249) (peptide)
peptide: B9 peptide with A1P
modifications: ends and bridges not checked
notes: Not pegylated; also called P-CLP-1
B13: T-GLP-1 (SEQ ID NO: 251) (peptide)
peptide: B9 peptide with A1T
modifications: not fully specified; ends and bridges not checked
notes: Not pegylated
B14: G-GLP-1 (SEQ ID NO: 248) (peptide)
peptide: B9 peptide with A1G
modifications: not fully specified
notes: Not pegylated

Biological target: T1, mouse GLP-1 receptor
Assay: cell-based or functional assay

Row | Binder | EC50 mouse [nM]
1 | B1 | 3

Biological target: T2, human GLP-1 receptor (human, UniProt P43220 24-463)
Assay: cell-based or functional assay

Row | Binder | EC50 human [nM]
2 | B2 | 0.027
3 | B3 | 0.13
4 | B4 | 0.2
5 | B5 | 0.039
6 | B6 | 0.1
7 | B7 | 0.00032
8 | B8 | 0.059

Biological target: T1, mouse GLP-1 receptor
Assay: cell-based or functional assay
Remark: another data set of the same source

Row | Binder | EC50 mouse [nM]
9 | B2 | 0.12
10 | B3 | 0.84
11 | B4 | 1.6
12 | B5 | 0.9
13 | B6 | 0.84
14 | B7 | 4
15 | B8 | 0.9

Biological target: T2, human GLP-1 receptor
Assay: cell-based or functional assay
Remark: another data set of the same source

Row | Binder | EC50 human [nM]
16 | B9 | 0.2
17 | B10 | 0.2
18 | B11 | 0.086
19 | B12 | 0.2
20 | B13 | 0.3
21 | B14 | 1

Biological target: T1, mouse GLP-1 receptor
Assay: cell-based or functional assay
Remark: another data set of the same source

Row | Binder | EC50 mouse [nM]
22 | B9 | 0.8
23 | B10 | 1
24 | B11 | 0.5
25 | B12 | 1
26 | B13 | 2
27 | B14 | 3

Biological target: T2, human GLP-1 receptor
Assay: 125I-GLP-1 displacement, membranes of CHOK1 cells expressing human GLP-1 receptor
Description: (§1) Membrane Preparation. […] Cells were sedimented at 1500 rpm for 10 minutes. The resulting pellets were homogenized in 15 mls of ice cold sucrose buffer (25 mM Tris-HCl, 0.32 M Sucrose, 0.25 g/L, sodium azide, pH 7.4) with a motorized, glass fitted, Teflon homogenizer. The homogenate was centrifuged at 48,000×g at 4° C. for 10 minutes, resuspended in 25 ml assay buffer (50 mM Tris-HCl, 5 mM MgCl₂, 10 mg/ml protease-free BSA, 0.1 mg/ml STI, and 0.1 mg/ml Pefabloc, pH 7.4) with a Tissue-Tearor (Biospec Products), then centrifuged again at 48,000×g for 10 minutes. The pellets were homogenized for a third time in 15 ml assay buffer using the Tissue-Tearor and again centrifuged at 48,000×g for 10 minutes. The resulting pellet was resuspended in assay buffer at a wet weight concentration of 4 mg/ml.
Ligand Binding Assay. Binding assays were performed in 96-well U-bottom plates. […] The reaction was terminated by rapid filtration through Unfilter-96 GF/C glass fiber filter plates (FilterMate 196 Packard Harvester, PerkinElmer, Shelton, Conn.) pre-soaked in 0.5% polyethylenimine, followed by three washes with 300 μl of cold 50 mM Tris-HCl, pH 7.4. Bound radioactivity was determined using a TopCount microplate scintillation and luminescence counter (Packard Instrument Company, PerkinElmer, Shelton, Conn.). Nonlinear regression analyses of resulting concentration curves were performed using GraphPad Prism (GraphPad Software, Inc., San Diego, Calif.). […]

Row | Binder | IC50 [nM]
28 | B2 | 3.5
29 | B3 | 56
30 | B4 | 50
31 | B5 | 15
32 | B6 | 47
33 | B7 | 230
34 | B8 | 23

Biological target: T2, human GLP-1 receptor
Assay: as above
Remark: another data set of the same source
Description: as §1
Ligand Binding Assay. Binding assays were performed in 96-well U-bottom plates. […] The reaction was terminated by rapid filtration through Unfilter-96 GF/C glass fiber filter plates (FilterMate 196 Packard Harvester, PerkinElmer, Shelton, Conn.) pre-soaked in 0.5% polyethylenimine, followed by three washes with 300 μl of cold 50 mM Tris-HCl, pH 7.4. Bound radioactivity was determined using a TopCount microplate scintillation and luminescence counter (Packard Instrument Company, PerkinElmer, Shelton, Conn.). Nonlinear regression analyses of resulting concentration curves were performed using GraphPad Prism (GraphPad Software, Inc., San Diego, Calif.).

Row | Binder | IC50 [nM]
35 | B9 | 38
36 | B10 | 32
37 | B12 | 38
38 | B13 | 53
39 | B14 | 80
